Results on seven molecules are retold here after patent US20140348844A1 (UCB, published 2014).

The target in one assay is TcdA ribotype 078 (Clostridium difficile ribotype 078). Description: cell-based or functional assay.
In assay [1] the target is T1, toxin B (VPI 10463) (Clostridium difficile strain VPI 10463, UniProt P18177 2-2366). Description: cell-based or functional assay.
Assay [2] deals with T2, TcdB binding (TcdB1234) (Clostridium difficile ribotype 027, UniProt P18177 1833-2366).
T2 construct: also called CROPs1,2,3,4 of Toxin B
Kind of assay: SPR Biacore 3000, biotinylated TcdB1234 on streptavidin chip, antibody at 500 nM, saturating response.

For assay [3], the target named is T1, toxin B (VPI 10463). Kind of assay: cell-based or functional assay. This is another data set of the same source.
The target in assay [4] is T2, TcdB binding (TcdB1234). Kind of assay: SPR BIAcore 3000, Mab captured on anti-human Fc, TcdB1234 in solution, purified Mab 3 point titration.
Assay [5] has as its target T1, toxin B (VPI 10463). Kind of assay: cell-based or functional assay. The source holds these as a separate data set.
Assay [6] deals with TcdA purified from strain VPI10463 (Clostridium difficile strain VPI10463, UniProt P16154 1-2710). Description: cell-based or functional assay.
Another assay addresses T3, TcdA from ribotype 027 (Clostridium difficile ribotype 027, UniProt P16154 1-2710).
T3 construct: also called TcdA ribotype 027; TcdA whole toxin
Kind of assay: estimated from SPR on TcdA sub-domains.

The target in the next assay is TcdA CROPS456 (TcdA456) (Clostridium difficile ribotype 027, UniProt P16154 2205-2608).

By Kd is commonly meant the equilibrium constant for the complex coming apart. A higher Kd goes with lower affinity. As a reminder, the koff is the rate constant with which the complex falls apart. High values mean fast dissociation, low ones slow dissociation. As a reminder, the kon is the rate constant with which the complex forms. Low readings indicate slower complex formation, high ones faster complex formation.

Values joined by “and” are separate entries in the source; they are usually repeats but may differ in a detail not shown here. Equal entries are not always repeated.

B1: CA164_01000.g1 (antibody, V domains shown)
VH: EVQLVESGGGLIQPGGSLRLSCTVSGIDLSSDAVGWVRQAPGKGLEYIGIIATFDSTYYASWAKGRFTISKASSTTVYLQMNSLRAEDTATYFCARTGSWYYISGWGSYYYGMDLWGQGTLVTVS
VL: EIVMTQSPSTLSASVGDRVTITCQASQSIYSYLAWYQQKPGKAPKLLIYDASTLASGVPSRFKGSGSGTEFTLTISSLQPDDFATYYCQGNAYTSNSHDNAFGGGTKVEIK
For B1, in the assay with TcdA ribotype 078, the “EC50 values (ng/ml) - TcdA ribotype 078, LD80” value (from here on “EC50 values (ng/ml) … LD80”) was 2.04 ng/mL; the “EC50 values (ng/ml) - TcdA ribotype 078, LD90” value worked out at 2.41 ng/mL; the “EC50 values (ng/ml) - TcdA ribotype 078, LD95” value was 5.03 ng/mL; the “EC50 values (ng/ml) - TcdA ribotype 078, LDmax” value (“EC50 values (ng/ml) … LDmax” for short) was 14.2 ng/mL.

B2: CA164_1151.g4 (antibody, V domains shown)
VH: EVQLQESGPGLVKPSETLSLTCTVSGFSLTSYYVHWVRQPPGKGLEWMGCIRTGGNTEYQSEFKSRVTISRDTSKNQVSLKLSSVTAADTAVYYCARGNYGFAYWGQGTLVTVS
VL: AIQMTQSPSSLSASVGDRVTITCKASQNVGNNVAWYQHKPGKAPKLLIYYASNRFTGVPSRFTGGGYGTDFTLTISSLQPEDFATYYCQRVYQSTWTFGQGTKVEIK
notes: also called CA1151; CA1151.g4
For B2, in the assay with toxin B (VPI 10463) [1], the “Maximum neutralisation, TcdB LD75” value was found to be 45%; the “Maximum neutralisation, TcdB LD86” value was found to be 25%; the “Maximum neutralisation, TcdB LD90” value worked out at 20%. Moreover, the “Binding Response (RU)” value with TcdB binding (TcdB1234) [2] is 1230 RU. Moreover, the “IC50 (ng/ml), TcdB neutralisation on Caco-2 cells, toxin at LD80” value (from here on “IC50 (ng/ml), TcdB neutralisation”) with toxin B (VPI 10463) [3] turned out to be 182 ng/mL.

B3: CA164_1134.g5 (antibody, V domains shown)
VH: EVQLQESGPGLVKPSETLSLTCTVSGFSLNSYTITWVRQPPGKGLEWIAAISGGGSTYFNSALKSRVTISRDTSKSQVSLKLSSVTAADTAVYYCTRPRWYPRSYFDYWGRGTLVTVS
VL: DVQLTQSPSFLSASVGDRVTITCKASKSISNHLAWYQEKPGKANKLLIHSGSTLQPGTPSRFSGSGSGTEFTLTISSLQPEDFATYYCQQYDEYPYTFGQGTRLEIK
notes: also called CA1134; CA164_01134.g5
Consider B3, for which, in the assay with toxin B (VPI 10463) [1], the “Maximum neutralisation, TcdB LD75” value was determined as 45%; the “Maximum neutralisation, TcdB LD86” value was 25%; the “Maximum neutralisation, TcdB LD90” value came out at 15%. In the assay with TcdB binding (TcdB1234) [4], the equilibrium dissociation constant (Kd) was 0.0481 nM and 0.048 nM; the koff was determined as 2.45e-05 s⁻¹; the kon amounted to 509000 M⁻¹ s⁻¹. The “EC50(ng/ml), TcdB neutralisation on Caco-2 cells, constant toxin concentration” value with toxin B (VPI 10463) [5] is more than 1000 ng/mL. In addition, the “IC50 (ng/ml), TcdB neutralisation” value in the assay with toxin B (VPI 10463) [3] was determined as 8 ng/mL.

B4: CA164_1099.g2 (antibody, V domains shown)
VH: EVQLQESGPGLVKPSETLSLTCTVSGFSLQSYTISWVRQPPGKGLEWIAAISGGGSTYYNLPLKSRVTISRDTSKSQVSLKLSSVTAADTAVYYCTRPRWYPRSYFDYWGRGTLVTVS
VL: DVQLTQSPSFLSASVGDRVTITCKASKSISNHLAWYQEKPGKANKLLIHSGSTLQSGTPSRFSGSGSGTEFTLTISSLQPEDFATYYCQQYDEYPYTFGQGTRLEIKR
With B4, in the assay with toxin B (VPI 10463) [3], the “IC50 (ng/ml), TcdB neutralisation” value worked out at 2 ng/mL.

B5: CA164_00997.g1 (antibody, V domains shown)
VH: EVQLVESGGGLVQPGGSLRLSCTVSGIDLSSHHMCWVRQAPGKGLEYIGVIYHFGSTYYANWATGRFTISKDSTTVYLQMNSLRAEDTATYFCARASIAGYSAFDPWGQGTLVTVS
VL: ALVMTQSPSSFSASTGDRVTITCQASQSISSYLSWYQQKPGKAPKLLIYRASTLASGVPSRFSGSGSGTEYTLTISCLQSEDFATYYCLGVYGYSNDDGIAFGGGTKVEIK
With B5, in the assay with TcdA ribotype 078, the “EC50 values (ng/ml) … LD80” value was 0.33 ng/mL; the “EC50 values (ng/ml) - TcdA ribotype 078, LD90” value was found to be 0.64 ng/mL; the “EC50 values (ng/ml) - TcdA ribotype 078, LD95” value turned out to be 1.11 ng/mL; the “EC50 values (ng/ml) … LDmax” value was found to be 2.57 ng/mL.

B6: CA164_00922.g1 (antibody, V domains shown)
VH: EVQLVESGGGLVQPGGSLRLSCAASGFTISSYYMSWVRQAPGKGLEWIGIISSGGHFTWYANWAKGRFTISSDSTTVYLQMNSLRDEDTATYFCARAYVSGSSFNGYALWGQGTLVTVS
VL: DPVMTQSPSTLSASVGDRVTITCQASQSISNALAWYQQKPGKAPKLLIYSASSLASGVPSRFKGSGSGTEFTLTISSLQPDDFATYYCQYTHYSHTSKNPFGGGTKVEIK
In the case of B6, in the assay with TcdA ribotype 078, the “EC50 values (ng/ml) … LD80” value came out at 0.11 ng/mL and the “EC50 values (ng/ml) … LDmax” value was found to be 0.68 ng/mL.

B7: CA164_00995.g1 (antibody, V domains shown)
VH: EVQLVESGGGLVQPGGSLRLSCTASGFSLSNYDMIWVRQAPGKGLEYIGFINTGGITYYASWAKGRFTISRDSSTVYLQMNSLRAEDTATYFCARVDDYIGAWGAGLWGQGTLVTVS
VL: DVVMTQSPSTLSASVGDRVTITCQASQSINNYFSWYQQKPGKAPKLLIYGAANLASGVPSRFKGSGSGTEYTLTISSLQPDDFATYSCQNNYGVHIYGAAFGGGTKVEIK
notes: also called CA995; CA164_0995.g1
Turning to B7, the “EC50 (ng/ml), TcdA neutralisation on Caco-2 cells, TcdA at LD80” value in assay [6] stood at 37.6 ng/mL. Also, the “Valency of binding, TcdA, est.” value with TcdA from ribotype 027 was 1. In the assay with TcdA CROPS456 (TcdA456), this molecule displayed a Kd of 0.119 nM, a koff of 3.42e-05 s⁻¹ and an on-rate (kon) of 287000 M⁻¹ s⁻¹.
